This is an account of results in article PMC2957469.

Test [1] has as its target JCV VP1 pentamer (amino acids 22-289, Mad-1 strain), His-tag removed, as crystallized (JC polyomavirus (JCV), Mad-1 strain). Put plainly: crystal structure.
Test [2] deals with JCV VP1 pentamer (amino acids 22-289, Mad-1 strain), His-tagged, wild type (JC polyomavirus (JCV), Mad-1 strain). Put plainly: SEC.
Test [3] concerns the target JCV VP1 pentamer (amino acids 22-289) A126Q, His-tagged (JC polyomavirus (JCV), Mad-1 strain). Put plainly: SEC.
Test [4] concerns the target JCV VP1 pentamer (amino acids 22-289) A126Y, His-tagged (JC polyomavirus (JCV), Mad-1 strain). Kind of test: SEC.
Test [5] has as its target JCV VP1 pentamer (amino acids 22-289) S266A/S268A, His-tagged (JC polyomavirus (JCV), Mad-1 strain). Kind of test: SEC.
The target in test [6] is JCV VP1 pentamer (amino acids 22-289) R265A, His-tagged (JC polyomavirus (JCV), Mad-1 strain). Put plainly: SEC.
The target of test [7] is JCV VP1 pentamer (amino acids 22-289) L54Y, His-tagged (JC polyomavirus (JCV), Mad-1 strain). Kind of test: SEC.
The target in test [8] is JCV VP1 pentamer (amino acids 22-289) N123A, His-tagged (JC polyomavirus (JCV), Mad-1 strain). Kind of test: SEC.
Test [9] addresses JCV VP1 pentamer (amino acids 22-289) S266N/S268N, His-tagged (JC polyomavirus (JCV), Mad-1 strain). Put plainly: SEC.

Substance “JCV VP1 pentamer (amino acids 22-289, Mad-1 strain), His-tag removed, as crystallized (domain or fragment)” showed a stoichiometry N in test [1] of 5. In [2], “JCV VP1 pentamer (amino acids 22-289, Mad-1 strain), His-tagged, wild type (domain or fragment)” returned a stoichiometry N of 5. On to “JCV VP1 pentamer (amino acids 22-289) A126Q, His-tagged (domain or fragment)”, for which the stoichiometry N in [3] was 5. In turn, “JCV VP1 pentamer (amino acids 22-289) A126Y, His-tagged (domain or fragment)” gave a stoichiometry N in [4] of 5.

In turn, “JCV VP1 pentamer (amino acids 22-289) S266A/S268A, His-tagged (domain or fragment)” displayed a stoichiometry N in [5] of 5. “JCV VP1 pentamer (amino acids 22-289) R265A, His-tagged (domain or fragment)”: in test [6], the stoichiometry N was 5. Substance “JCV VP1 pentamer (amino acids 22-289) L54Y, His-tagged (domain or fragment)” gave a stoichiometry N in [7] of 5.

Turning to “JCV VP1 pentamer (amino acids 22-289) N123A, His-tagged (domain or fragment)”, the stoichiometry N in test [8] worked out at 5.

As for “JCV VP1 pentamer (amino acids 22-289) S266N/S268N, His-tagged (domain or fragment)”, in test [9], the stoichiometry N is 5.
